# Reference: patent US20050069883A1 (priority 2001, published 2005)
# Bridge positions count the residues as written; N and C are the ends. Ends that are not written are not given here.
# Experiments:
# [1] = biological target: human melanin-concentrating hormone receptor (MCH-1R) (human) (UniProt Q99705); test: scintillation proximity assay, HEK293-AEQ17/MCH-1R membranes; non-specific binding defined with 500 nM unlabeled MCH
# [2] = system: MCH-1R(Δ316/EGFP); test: Functional activation, aequorin assay (mobilization of intracellular calcium); format: cell-based, human; details: FIG. 6; transiently transfected HEK293-AEQ17 cells, aequorin bioluminescence
# Experimental: Functional activation of MCH-1R […] was measured in an aequorin assay. Proteins were introduced in the stable reporter cell line HEK293-AEQ17 in which mobilization of intracellular calcium can be detected by bioluminescence of jelly fish aequorin upon calcium binding.
# Bioluminescence was detected using a Luminoskan RT luminometer (Labsystems Inc., Gaithersburg, Md.). HEK293-AEQ17 cells were maintained in D-MEM/high glucose medium (Life Technologies, Rockville, Md.) supplemented with 10% fetal bovine serum, […] G418, 25 mM Hepes at 37° C. with 5% CO2 in a humidified atmosphere. […]
# The cells were harvested, washed once in ECB medium and resuspended to 500,000 cells/ml. […] of cell suspension (corresponding to 5×10^4 cells) was then injected into a 96-well test plate, and the integrated light emission was recorded over 30 seconds, in 0.5 second units. 20 μL of lysis buffer (0.1% final Triton X-100 concentration) was then injected and the integrated light emission recorded over 10 seconds, in 0.5 second units. The “fractional response” values for each well were calculated by taking the ratio of the integrated response to the initial challenge to the total integrated luminescence including the Triton X-100 lysis response.
# Chain of human melanin-concentrating hormone receptor (MCH-1R) (human) (Q99705 whole entry): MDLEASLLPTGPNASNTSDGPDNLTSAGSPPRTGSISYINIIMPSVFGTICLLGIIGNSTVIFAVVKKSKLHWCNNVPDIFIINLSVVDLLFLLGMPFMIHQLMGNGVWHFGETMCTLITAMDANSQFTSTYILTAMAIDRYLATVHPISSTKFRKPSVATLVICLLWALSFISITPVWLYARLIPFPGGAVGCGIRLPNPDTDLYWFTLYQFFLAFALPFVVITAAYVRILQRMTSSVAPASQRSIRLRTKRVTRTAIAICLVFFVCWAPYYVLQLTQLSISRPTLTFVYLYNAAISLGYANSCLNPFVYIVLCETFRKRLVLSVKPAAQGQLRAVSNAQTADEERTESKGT
Substance,specific binding window [1],functional activation of MCH-1R(Δ316/EGFP) (mobilization of intracellular calcium) [2]
[125I]Phe13Tyr19-MCH (from UniProt P20382 147-165) (peptide),> 6 x (fold),–
"Melanin-concentrating hormone (DFDMLRCMLGRVYRPCWQV; disulfide 7-16 (inferred); ends not checked) [MCH, cyclic 19-amino acid neuropeptide, MCH-1R agonist]",–,lack of functional activation
